B1: Progranulin (Homo sapiens), P28799 (parent)
chain: MWTLVSWVALTAGLVAGTRCPDGQFCPVACCLDPGGASYSCCRPLLDKWPTTLSRHLGGPCQVDAHCSAGHSCIFTVSGTSSCCPFPEAVACGDGHHCCPRGFHCSADGRSCFQRSGNNSVGAIQCPDSQFECPDFSTCCVMVDGSWGCCPMPQASCCEDRVHCCPHGAFCDLVHTRCITPTGTHPLAKKLPAQRTNRAVALSSSVMCPDARSRCPDGSTCCELPSGKYGCCPMPNATCCSDHLHCCPQDTVCDLIQSKCLSKENATTDLLTKLPAHTVGDVKCDMEVSCPDGYTCCRLQSGAWGCCPFTQAVCCEDHIHCCPAGFTCDTQKGTCEQGPHQVPWMEKAPAHLSLPDPQALKRDVPCDNVSSCPSSDTCCQLTSGEWGCCPIPEAVCCSDHQHCCPQGYTCVAEGQCQRGSEIVAGLEKMPARRASLSHPRDIGCDQHTSCPVGQTCCPSLGGSWACCQLPHAVCCEDRQHCCPAGYTCNVKARSCEKEVVSAQPATFLARSPHVGVKDVECGEGHFCHDNQTCCRDNRQGWACCPYRQGVCCADRRHCCPAGFRCAARGTKCLRREAPRWDAPLRDPALRQLL
B2: ATP synthase mitochondrial F1 complex assembly factor 2 (Homo sapiens), Q8N5M1 (parent)
chain: MWRSCLRLRDGGRRLLNRPAGGPSASMSPGPTIPSPARAYAPPTERKRFYQNVSITQGEGGFEINLDHRKLKTPQAKLFTVPSEALAIAVATEWDSQQDTIKYYTMHLTTLCNTSLDNPTQRNKDQLIRAAVKFLDTDTICYRVEEPETLVELQRNEWDPIIEWAEKRYGVEISSSTSIMGPSIPAKTREVLVSHLASYNTWALQGIEFVAAQLKSMVLTLGLIDLRLTVEQAVLLSRLEEEYQIQKWGNIEWAHDYELQELRARTAAGTLFIHLCSESTTVKHKLLKE
partner: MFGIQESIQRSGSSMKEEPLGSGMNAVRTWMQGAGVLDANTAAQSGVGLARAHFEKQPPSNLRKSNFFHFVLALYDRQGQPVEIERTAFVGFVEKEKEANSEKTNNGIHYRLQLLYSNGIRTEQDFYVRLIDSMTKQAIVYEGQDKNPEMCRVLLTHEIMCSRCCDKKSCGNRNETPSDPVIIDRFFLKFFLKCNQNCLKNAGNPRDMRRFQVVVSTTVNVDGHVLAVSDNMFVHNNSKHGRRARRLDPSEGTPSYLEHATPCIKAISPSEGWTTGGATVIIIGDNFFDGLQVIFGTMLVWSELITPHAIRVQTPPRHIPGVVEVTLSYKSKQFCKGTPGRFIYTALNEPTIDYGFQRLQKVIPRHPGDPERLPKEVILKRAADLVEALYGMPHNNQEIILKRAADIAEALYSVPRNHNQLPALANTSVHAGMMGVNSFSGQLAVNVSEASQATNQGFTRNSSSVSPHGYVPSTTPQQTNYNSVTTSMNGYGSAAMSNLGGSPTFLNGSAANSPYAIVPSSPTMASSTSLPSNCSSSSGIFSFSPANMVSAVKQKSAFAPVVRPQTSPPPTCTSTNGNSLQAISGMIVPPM
B3: Beta-crystallin A4 (Homo sapiens), P53673 (parent)
chain: MTLQCTKSAGPWKMVVWDEDGFQGRRHEFTAECPSVLELGFETVRSLKVLSGAWVGFEHAGFQGQQYILERGEYPSWDAWGGNTAYPAERLTSFRPAACANHRDSRLTIFEQENFLGKKGELSDDYPSLQAMGWEGNEVGSFHVHSGAWVCSQFPGYRGFQYVLECDHHSGDYKHFREWGSHAPTFQVQSIRRIQQ

Variants of: B1
Conditions: with hxa1_human HOXA1, P49639
hxa1_human HOXA1, P49639, sequence (P49639 whole entry): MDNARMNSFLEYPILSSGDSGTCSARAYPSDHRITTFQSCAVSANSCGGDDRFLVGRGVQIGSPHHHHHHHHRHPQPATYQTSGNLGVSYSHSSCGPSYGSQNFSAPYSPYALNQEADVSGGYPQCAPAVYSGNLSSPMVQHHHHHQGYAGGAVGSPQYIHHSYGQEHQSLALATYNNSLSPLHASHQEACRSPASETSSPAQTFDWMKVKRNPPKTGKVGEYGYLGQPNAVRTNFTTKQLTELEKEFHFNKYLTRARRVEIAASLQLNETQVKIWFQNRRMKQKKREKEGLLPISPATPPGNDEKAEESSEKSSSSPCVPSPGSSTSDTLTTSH

Variant | effect of a mutation on the interaction
P451L | with no effect
A9D | disrupting interaction strength
P248L | with no effect

Variants of: B1
Conditions: with ARFGAP1, Q8N6T3-3
ARFGAP1, Q8N6T3-3, sequence (Q8N6T3 other isoform, or with tags, fused parts or gaps): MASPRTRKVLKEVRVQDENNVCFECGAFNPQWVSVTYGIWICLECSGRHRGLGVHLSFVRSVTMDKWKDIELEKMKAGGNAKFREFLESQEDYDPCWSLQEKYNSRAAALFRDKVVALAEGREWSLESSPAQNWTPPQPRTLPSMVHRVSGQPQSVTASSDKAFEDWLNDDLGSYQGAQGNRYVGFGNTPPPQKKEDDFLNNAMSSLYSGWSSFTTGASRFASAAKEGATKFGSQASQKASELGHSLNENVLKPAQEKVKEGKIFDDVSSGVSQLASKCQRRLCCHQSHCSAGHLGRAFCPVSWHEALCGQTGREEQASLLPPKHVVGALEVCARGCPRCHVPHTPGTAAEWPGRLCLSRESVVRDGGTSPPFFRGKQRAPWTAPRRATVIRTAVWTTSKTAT

Variant | effect of a mutation on the interaction
P451L | disrupting interaction strength
A9D | disrupting interaction strength
P248L | with no effect

Variants of: B1
Conditions: with sgta_human SGTA

Variant | effect of a mutation on the interaction
P451L | with no effect
A9D | disrupting interaction strength
P248L | with no effect

Variants of: B1
Conditions: with otx1_human OTX1, P32242
otx1_human OTX1, P32242, sequence (P32242 whole entry): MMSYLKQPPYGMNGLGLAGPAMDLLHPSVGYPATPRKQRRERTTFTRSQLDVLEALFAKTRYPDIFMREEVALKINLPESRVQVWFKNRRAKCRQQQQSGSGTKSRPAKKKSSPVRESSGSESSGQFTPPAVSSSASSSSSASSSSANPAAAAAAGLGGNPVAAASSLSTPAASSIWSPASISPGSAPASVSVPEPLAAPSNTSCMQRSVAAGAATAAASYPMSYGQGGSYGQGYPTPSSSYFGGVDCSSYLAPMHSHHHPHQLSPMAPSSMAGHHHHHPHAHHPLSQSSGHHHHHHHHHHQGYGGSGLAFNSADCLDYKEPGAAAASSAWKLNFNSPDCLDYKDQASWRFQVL

Variant | effect of a mutation on the interaction
P451L | with no effect
A9D | disrupting interaction strength
P248L | with no effect

Variants of: B1
Conditions: with ccd33_human CCDC33, Q8N5R6
Target sequence in this assay (Q8N5R6 whole entry): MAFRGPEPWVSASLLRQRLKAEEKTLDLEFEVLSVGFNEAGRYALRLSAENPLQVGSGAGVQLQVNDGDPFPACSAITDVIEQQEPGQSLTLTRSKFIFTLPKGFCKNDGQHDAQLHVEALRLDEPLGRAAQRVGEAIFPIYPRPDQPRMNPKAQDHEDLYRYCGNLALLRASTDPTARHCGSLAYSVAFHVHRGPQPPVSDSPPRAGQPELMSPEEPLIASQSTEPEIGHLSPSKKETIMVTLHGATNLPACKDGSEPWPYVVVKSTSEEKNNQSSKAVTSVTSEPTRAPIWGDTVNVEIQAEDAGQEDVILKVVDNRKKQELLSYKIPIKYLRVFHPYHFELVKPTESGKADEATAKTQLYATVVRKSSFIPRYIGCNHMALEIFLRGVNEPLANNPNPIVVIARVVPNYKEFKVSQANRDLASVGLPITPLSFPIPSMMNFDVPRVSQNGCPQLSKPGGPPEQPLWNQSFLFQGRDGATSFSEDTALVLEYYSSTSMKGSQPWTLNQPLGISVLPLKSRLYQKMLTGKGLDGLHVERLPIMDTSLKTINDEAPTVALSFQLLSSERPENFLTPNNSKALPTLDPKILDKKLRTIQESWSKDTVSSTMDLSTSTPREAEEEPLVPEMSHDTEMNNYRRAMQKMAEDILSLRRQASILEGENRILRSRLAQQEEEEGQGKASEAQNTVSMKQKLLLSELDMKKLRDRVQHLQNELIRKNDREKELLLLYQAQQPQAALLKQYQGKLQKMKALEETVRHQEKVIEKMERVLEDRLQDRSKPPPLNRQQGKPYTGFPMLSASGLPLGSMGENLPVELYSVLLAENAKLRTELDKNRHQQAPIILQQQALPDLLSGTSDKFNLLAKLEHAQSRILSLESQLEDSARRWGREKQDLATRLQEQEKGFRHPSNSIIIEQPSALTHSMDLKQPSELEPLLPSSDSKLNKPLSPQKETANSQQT

Variant | effect of a mutation on the interaction
P451L | disrupting interaction strength
A9D | disrupting interaction strength
P248L | with no effect

Variants of: B2
Conditions: with coe1_human EBF1, Q9UH73

Variant | effect of a mutation on the interaction
W94R | disrupting interaction strength

Variants of: B3
Conditions: with ikzf3_human IKZF3, Q9UKT9
ikzf3_human IKZF3, Q9UKT9, sequence (Q9UKT9 whole entry): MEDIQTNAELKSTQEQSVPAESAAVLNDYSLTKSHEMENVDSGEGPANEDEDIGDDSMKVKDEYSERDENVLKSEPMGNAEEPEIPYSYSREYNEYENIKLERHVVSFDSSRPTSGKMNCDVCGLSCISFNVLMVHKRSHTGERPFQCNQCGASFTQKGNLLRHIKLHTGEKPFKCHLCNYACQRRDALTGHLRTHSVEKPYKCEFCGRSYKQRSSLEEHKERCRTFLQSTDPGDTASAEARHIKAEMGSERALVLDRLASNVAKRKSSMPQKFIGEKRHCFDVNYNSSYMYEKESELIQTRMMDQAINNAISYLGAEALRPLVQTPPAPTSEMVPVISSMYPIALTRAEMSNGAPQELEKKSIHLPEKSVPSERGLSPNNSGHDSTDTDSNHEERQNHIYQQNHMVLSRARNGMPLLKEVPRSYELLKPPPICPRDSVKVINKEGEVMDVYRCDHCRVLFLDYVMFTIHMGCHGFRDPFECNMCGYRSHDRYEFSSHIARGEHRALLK

Variant | effect of a mutation on the interaction
F94S | disrupting interaction strength
V36M | disrupting interaction strength

Variants of: B3
Conditions: with trip6_human TRIP6, Q15654
trip6_human TRIP6, Q15654, sequence (Q15654 whole entry): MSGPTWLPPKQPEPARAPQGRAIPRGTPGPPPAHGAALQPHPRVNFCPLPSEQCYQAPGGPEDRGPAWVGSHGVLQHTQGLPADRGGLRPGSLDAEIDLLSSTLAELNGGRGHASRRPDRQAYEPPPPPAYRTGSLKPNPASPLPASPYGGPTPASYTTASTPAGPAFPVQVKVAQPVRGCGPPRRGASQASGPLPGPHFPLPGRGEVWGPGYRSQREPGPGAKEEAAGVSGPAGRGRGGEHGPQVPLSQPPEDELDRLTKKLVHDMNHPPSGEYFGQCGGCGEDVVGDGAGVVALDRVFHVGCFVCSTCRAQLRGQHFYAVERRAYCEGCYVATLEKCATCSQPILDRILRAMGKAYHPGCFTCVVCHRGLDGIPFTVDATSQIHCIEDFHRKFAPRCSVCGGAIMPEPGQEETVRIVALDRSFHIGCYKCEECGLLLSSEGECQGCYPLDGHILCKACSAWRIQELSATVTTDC

Variant | effect of a mutation on the interaction
F94S | disrupting interaction strength
V36M | disrupting interaction strength

Variants of: B3
Conditions: with gli1_human GLI1, P08151
gli1_human GLI1, P08151, sequence (P08151 whole entry): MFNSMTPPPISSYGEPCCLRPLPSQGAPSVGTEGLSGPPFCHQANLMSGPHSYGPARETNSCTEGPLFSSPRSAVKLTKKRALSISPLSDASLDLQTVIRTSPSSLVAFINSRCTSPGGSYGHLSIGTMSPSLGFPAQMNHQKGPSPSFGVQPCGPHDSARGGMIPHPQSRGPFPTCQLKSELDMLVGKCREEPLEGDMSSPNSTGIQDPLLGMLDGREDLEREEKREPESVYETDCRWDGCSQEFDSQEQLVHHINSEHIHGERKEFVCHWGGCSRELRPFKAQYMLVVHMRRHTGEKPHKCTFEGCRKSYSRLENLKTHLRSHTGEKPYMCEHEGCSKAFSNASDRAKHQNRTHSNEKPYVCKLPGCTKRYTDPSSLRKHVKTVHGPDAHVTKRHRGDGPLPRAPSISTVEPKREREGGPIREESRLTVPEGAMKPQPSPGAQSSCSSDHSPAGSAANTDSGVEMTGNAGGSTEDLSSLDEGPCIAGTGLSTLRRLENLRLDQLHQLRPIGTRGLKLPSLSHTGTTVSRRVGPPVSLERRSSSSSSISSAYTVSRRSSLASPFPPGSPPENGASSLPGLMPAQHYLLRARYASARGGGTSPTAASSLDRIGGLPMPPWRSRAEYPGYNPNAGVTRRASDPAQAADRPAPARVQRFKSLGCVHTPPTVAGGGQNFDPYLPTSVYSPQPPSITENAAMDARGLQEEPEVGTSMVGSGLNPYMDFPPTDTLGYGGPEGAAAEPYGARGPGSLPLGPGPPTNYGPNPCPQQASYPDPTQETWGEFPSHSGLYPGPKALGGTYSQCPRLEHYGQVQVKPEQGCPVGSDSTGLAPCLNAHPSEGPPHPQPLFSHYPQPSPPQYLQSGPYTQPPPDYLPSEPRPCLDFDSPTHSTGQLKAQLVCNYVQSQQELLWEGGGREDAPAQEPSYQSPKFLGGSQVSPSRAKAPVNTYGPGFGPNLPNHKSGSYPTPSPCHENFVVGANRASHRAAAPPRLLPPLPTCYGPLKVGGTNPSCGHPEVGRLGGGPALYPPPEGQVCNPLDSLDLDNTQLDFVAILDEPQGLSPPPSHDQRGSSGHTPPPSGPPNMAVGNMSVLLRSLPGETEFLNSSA

Variant | effect of a mutation on the interaction
F94S | disrupting interaction strength
V36M | disrupting interaction strength

Variants of: B3
Conditions: with ccd33_human CCDC33, Q8N5R6
Target sequence in this assay (Q8N5R6 whole entry): as the sequence (Q8N5R6 whole entry) above

Variant | effect of a mutation on the interaction
F94S | disrupting interaction strength
V36M | disrupting interaction strength

Reference: IntAct's records for PubMed 25910212
